Measurements reported in paper PMC11880201 (Nature Communications, 2025).

Biological target: TEAD (residue 28-104) of TEAD1 (UniProt P28347 28-104)
Experiment: fluorescence polarisation

Sequence of TEAD (residue 28-104) of TEAD1 (P28347 28-104): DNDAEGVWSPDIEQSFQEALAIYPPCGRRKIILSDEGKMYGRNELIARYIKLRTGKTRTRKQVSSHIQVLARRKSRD

Kd: 0.0395 µM
B1: FITC-labeled INSM1 ZF1 (domain or fragment)
chain: not shown
modifications: FITC label (FITC rapid labeling kit), site not stated
